Laboratory results: article PMC5746248, “Comparative analysis of the end-joining activity of several DNA ligases”

Legend:
Test in all cases: fluorescence anisotropy; 10 mM MgCl2, 1 mM ATP; T4 DNA ligase reaction buffer: 50 mM Tris-HCl pH 7.5 (25°C), 1 mM ATP, 10 mM MgCl2; 750 pM-4 nM DNA; anisotropy temperature not stated
[1] = molecular target: T1, hLig3 (human DNA ligase III beta) (human, UniProt P49916-2 88-949); conditions: protein: recombinant; tags: N-terminal His6; label: 3'-FAM on one strand; blunt
T1 sequence: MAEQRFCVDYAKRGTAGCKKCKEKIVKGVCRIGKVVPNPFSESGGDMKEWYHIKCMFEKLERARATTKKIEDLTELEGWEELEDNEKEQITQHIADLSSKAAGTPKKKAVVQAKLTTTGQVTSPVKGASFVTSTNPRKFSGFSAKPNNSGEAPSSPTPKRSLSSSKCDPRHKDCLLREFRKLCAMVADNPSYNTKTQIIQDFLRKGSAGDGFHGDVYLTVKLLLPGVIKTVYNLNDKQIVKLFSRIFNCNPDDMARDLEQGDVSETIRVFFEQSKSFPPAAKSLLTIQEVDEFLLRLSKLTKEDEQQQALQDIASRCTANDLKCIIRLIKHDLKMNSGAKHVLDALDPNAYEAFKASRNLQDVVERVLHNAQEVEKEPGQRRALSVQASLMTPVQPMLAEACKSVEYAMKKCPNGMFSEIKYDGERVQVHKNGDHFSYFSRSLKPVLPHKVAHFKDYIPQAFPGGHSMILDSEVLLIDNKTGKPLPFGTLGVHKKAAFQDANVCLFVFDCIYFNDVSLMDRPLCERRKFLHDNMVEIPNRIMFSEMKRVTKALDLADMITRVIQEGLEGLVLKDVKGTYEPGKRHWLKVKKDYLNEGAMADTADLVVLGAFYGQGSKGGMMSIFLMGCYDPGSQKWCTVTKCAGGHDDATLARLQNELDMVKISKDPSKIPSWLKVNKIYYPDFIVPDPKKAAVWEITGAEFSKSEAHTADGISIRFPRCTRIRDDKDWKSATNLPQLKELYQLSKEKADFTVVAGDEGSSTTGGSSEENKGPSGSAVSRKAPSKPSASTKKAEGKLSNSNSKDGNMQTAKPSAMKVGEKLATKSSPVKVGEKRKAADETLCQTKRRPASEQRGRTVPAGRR

PBCV1-Nterm-T4NTD = PBCV1-Nterm-T4NTD (bacteriophage T4 (T4NTD) / Paramecium …, UniProt P00970 1-135+O41026:1-298, internal_change); conditions: protein: recombinant; tags: N-terminal His6; label: 3'-FAM on one strand; blunt
PBCV1 DNA ligase = molecular target: T2, PBCV1 DNA ligase (Paramecium bursaria chlorella virus 1, UniProt O41026 1-298); conditions: protein: recombinant; label: 3'-FAM on one strand; blunt
T2 sequence: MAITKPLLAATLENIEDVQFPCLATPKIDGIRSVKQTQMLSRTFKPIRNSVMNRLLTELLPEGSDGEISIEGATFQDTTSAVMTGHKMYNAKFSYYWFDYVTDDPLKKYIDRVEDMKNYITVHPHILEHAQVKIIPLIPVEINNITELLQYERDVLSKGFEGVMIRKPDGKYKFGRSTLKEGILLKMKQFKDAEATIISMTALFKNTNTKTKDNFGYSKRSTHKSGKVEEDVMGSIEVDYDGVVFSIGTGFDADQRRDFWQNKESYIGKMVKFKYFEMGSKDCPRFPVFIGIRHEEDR

T4 DNA ligase = molecular target: T3, T4 DNA ligase (bacteriophage T4, UniProt P00970 1-487); conditions: label: 3'-FAM on one strand; blunt
T3 sequence: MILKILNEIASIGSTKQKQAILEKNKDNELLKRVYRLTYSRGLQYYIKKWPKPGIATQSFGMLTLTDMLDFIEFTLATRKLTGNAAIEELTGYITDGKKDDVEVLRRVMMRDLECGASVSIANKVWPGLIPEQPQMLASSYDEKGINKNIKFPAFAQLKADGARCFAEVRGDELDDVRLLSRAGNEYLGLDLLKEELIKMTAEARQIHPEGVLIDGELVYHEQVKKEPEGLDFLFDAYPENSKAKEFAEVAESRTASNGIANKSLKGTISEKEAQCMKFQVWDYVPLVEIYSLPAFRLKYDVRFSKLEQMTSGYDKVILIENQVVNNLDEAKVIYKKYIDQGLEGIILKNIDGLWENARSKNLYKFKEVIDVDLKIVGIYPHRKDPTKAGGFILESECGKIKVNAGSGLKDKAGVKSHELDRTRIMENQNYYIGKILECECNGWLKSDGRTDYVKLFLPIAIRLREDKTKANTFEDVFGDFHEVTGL

hLig3 ZnF = molecular target: T4, hLig3 ZnF (human, UniProt P49916 88-206); conditions: protein: recombinant; tags: His10; label: 3'-FAM on one strand; blunt
T4 sequence: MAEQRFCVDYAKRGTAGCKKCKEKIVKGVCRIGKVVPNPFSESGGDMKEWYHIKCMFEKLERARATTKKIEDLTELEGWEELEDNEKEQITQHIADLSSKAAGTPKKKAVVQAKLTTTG

Sso7d = molecular target: T5, Sso7d (Sulfolobus solfataricus, UniProt P39476 2-64); conditions: protein: recombinant; tags: N-terminal His6; label: 3'-FAM on one strand; blunt
T5 sequence: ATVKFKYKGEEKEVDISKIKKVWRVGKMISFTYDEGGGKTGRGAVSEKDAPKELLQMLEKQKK

T3 DNA ligase = molecular target: T6, T3 DNA ligase (bacteriophage T3, UniProt P07717 1-346); conditions: label: 3'-FAM on one strand; blunt
T6 sequence: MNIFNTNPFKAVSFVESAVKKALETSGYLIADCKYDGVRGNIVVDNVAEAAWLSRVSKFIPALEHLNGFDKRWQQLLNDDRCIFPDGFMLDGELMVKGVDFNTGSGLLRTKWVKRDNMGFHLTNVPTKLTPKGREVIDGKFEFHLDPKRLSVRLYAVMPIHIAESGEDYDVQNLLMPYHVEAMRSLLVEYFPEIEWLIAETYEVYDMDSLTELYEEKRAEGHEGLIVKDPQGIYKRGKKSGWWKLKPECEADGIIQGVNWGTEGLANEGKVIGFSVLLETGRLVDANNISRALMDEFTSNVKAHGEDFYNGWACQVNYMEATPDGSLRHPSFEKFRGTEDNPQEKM

B1: Anisotropy 24mer dsDNA (dsDNA)
DNA 1: GATCGTCCTTGGTGATCATGCATC
DNA 2: GATGCATGATCACCAAGGACGATC
Work on B1 yielded a Kd [1] of 3.8 ± 0.2 nM, a Kd (PBCV1-Nterm-T4NTD) of 243 ± 39 nM and a Kd (PBCV1 DNA ligase) of 990 ± 80 nM. It also gave a Kd (T4 DNA ligase) of 1900 ± 100 nM, a Kd (hLig3 ZnF) of 21 ± 1 nM and a Kd (Sso7d) of 430 ± 60 nM. For the same binder, the Kd (T3 DNA ligase) was 6400 ± 400 nM.
